Laboratory results published in a protein production outcome set (Wang et al. 2014).

Test: label from the status in PepcDB records
With “MKYSWNKTVFPIAAIFSFRLLGLFLLIPVFTLYATNLKGATPTLIGLALGSYGLAQGLLQIPFGMLSDKLGRKPMIAIGLLLFAGGSLLGAVTHSIAGMITARILQGAGAIGSVLIALLADLTLDEQRTKAMAIVGITIGTSFSLAMIISPALTHYYGLSGVFYLTAALAVLGIMILYLIIPNPSKEQFHADSEPSLSLIKPVVTDQHLQRLNFGIFCQHFILTATFFAIPMLLKYQIENGHLHQQWHFYLPLMLFSFILMVPFIIISERKKRLKTVFVISVLLTTFTQGLLVLASQNWYWFCILMFVYFVSFNVLEATLPSLVSKLASPGSKGTAMGIYSTSQFLGIFFGGSLAGILYQWYDNQAIFLINMILSCLWFIISLSMKSNVYFSTLILPFTANNEESKLVVNQLLKVAGIKEVILSKDENTLYVRVDNEEYSTGSAEKILHQSTIYQ” the protein production was “failed”.
For “MKYTIEEIRQMQEGQTFDCKSILIEPKHLATIIVAMANADGGMIAVGISDKTRRIEGVNQDKEHLNDILRTPLDFCVPSVSVTTDYVPCTDAEGRDNRVLLMHIPASPRLHANQADEVFWRVGDKSRKLTFDERLQLMYDKGERYYEDSTAYDATLDDIDMDAVKAYMKRIGYGKSAMEYLQENKGFVTYKGDVPQVSAACILLFGKHPQTFFPRARVRFIKYFGTEEKVGREMNVIKDVTFDGRILEQIQKTVEYLETQVKEHSYLGEDGIFKTDREYPKFVIQEMVVNSVCHRDYSIKGTEIQIKMFDDRLVFETPGKLPGIVRTDNIRHTHFSRNPKIAEFLKAYDYVKEFGEGVDRMCRELSALGVKEPQYNLVAFIMKATVCAKVLEERQGTNHFDQKRPESDQKSDQMRIILELIKSNPNISRTELSEKTGLHDSSVKRRLKTLVDEGLIQRVGPDKGGQWKVIGSLLEHHHHHH”, the protein production was “not failed”.
For “MKYYDEVPIIRSVAAMLVVAIHTVNSIALSRGTFTSDGLGYVNQIARLGTPIFAVISAFLLTISVVNKGFNLDYFVKSRFSKIFIPYIIWTVFYLLYRAFYLHNLEDDGKLLNYFVYGKANFHLYFILTVIQFYFLFPLLQKFKKGWPIIIVYILATIANIIWIRMGPVSLGGGGVERFVNDKLFIMNWISFFMLGIVYAKFYNEIRILIFKHKAILSTIIGILFIDFLLSIDLDHLQSSITVSNMIYIPFFIVFLNYLYEHVKKNHTILKTLTLIGNYSMGIYLVHYVAIQFVKRLPIIEDIVPQSKFMGVFILTVAVSVLIVYLIGKIPYGNYIVPIPKKKATQTTDVDKKKVTQSKHTPNYNS”, the protein production was “failed”.
In the case of “MLAAAVLPKLLRHMPLSMPMVFLGSGILAFTLLPELPDPDPVKYGDFTTHLTEVCVIISLMGAGLALDRPFRWRGWSTTWRLLGIVMPLCILVMTLLGLWVLGLGLAGAILVAGAIAPTDPVLASEVQVGKPADAEDDPDEDEVRFALTSEAGLNDGLAFPFVYLAILISLVGASPDAWLGEWVALDVLWRTVAGVLVGFGTGKLLSMFFFAAKGKTFRLSEHSEGFVALAATFLAYGAAEMVEGYGFVAVFLCALTIRSAEHNHSYHQVLHSYVEQLERLMTVVILVLLGGAIARGLLEGIGWTEVLVALAFLLLVRPLAGWLGLMGGKTGPRERLAISYFGIRGIGSLFYVAYALTHGNFDAEARELWALIGLVVALSIVVHGATTAPLMNRLDRLRVAEARKQHGDEGRAPTTAV”, the protein production is reported as “failed”.
In the case of “MLAAEANLELDRETIRRQLWQSEAPEKRAGSLRQLLARIEQSIPAALPPLLKATRTHIGLADGWEVDVHMLKQKGPLAAEDGDILNGELLESAKSPTQGAEDWLTFERQRVDELRAAHLTRLVETAEDRSDEEQVAFARRLLELDPASETAYRALMRTYVRMNDPAAARQTYLKCKSQLKDEFDAEPEESTTALARELGLIPAAQPAAAERPSAGPSGFADLLGQPRIIILPPESIFTDPLMERVGRALLEDVTIGLSQQRGFRVIAAHTSLEILSRSVDPARAVPRPLDLSFDYAVYVTIQGRDEDVYATCRLTRTTTSEVIWALELPLVMQKISESFAHLTRRIVSSLADTVERHELAMPIGDAPPSAYRLYLEGKRLIAQTDLQHLRQARKWFKSSLNRYENFSAAHAGVSRALGMEWLIRGMQDTELLDEANGAARQAQQSDPNSGRAYRELGFVALYRRRFDESLDYFQQAQDLNPNDADILADYADALCHYGDFDKALDLNNAAFKLNPLPPDYYYWNRGGIHFDRGEYQQAIEALEPVKSKQATARLLAAAHAMAGDMKKAGGYASVVLDNFPDFRSEDIRHFVPDRDPRYTETLIHGLHLAGLP”, the protein production is reported as “failed”.
In the case of “MLAEAGTGTGVAAAASHDAPPKAVPRQLPAPPRITAFLSAFATPPPHCLRLNKSLNGLHNPVTLHVVCQYMLLRSVHGGRERYLNAHVSQGSWPVLVLNADFRPLSYYPLSLWSWQDAIKAVFLDRVNIVAHYDQAVRSPTLEMQLPSVVSLKSFVKPTTHPAFTRFNVFLRDRFACQYCGSPEDLTFDHIIPRSKGGQTTWENVVAACSPCNLRKGNLTPAQAKMFPRQSAFAPTVHQLHRNGRMFPPNYLHDSWLDYLYWDTELDP”, the protein production is reported as “failed”.
With “MLAILIFSFLLVILVAGNNSSAVSGTIIGSKMMNKSLALAITAVGYIAGYLLEGRFLQHAVNELLPFEPEYVLYAIIASFVIFTIAFFVKVPISLTMALVGSAIGLSLKLGYSSDARFLTEVIIAWIAAPLISVGSSYVFNDRLSKMRHGDIWRYASAIKVMPIVTAIFTAFTLGANTIGFLGDISGTAVFNEILISIGSVIGTFFFSSGIMKSVSQNMYMMKYTNAFSSQLISALVVEVSTLFSIPMSNTQTLTSAVLGAGLSYRAKAIYLKPFLYIVIMWILSPLIGMAFTYALA” the protein production was “failed”.
In the case of “MLAKIIMKNFKSFKNETVIDFTRINYKFLENNVSNNGVLKGVAFYGANASGKSNVLWAIRFLLDELFGEEKNPVTFMKCLFSDEPEFSLQYFFVIESREIHYLIDFHTEKGIINEELYLDRKLLLQRMGSTAKSGITEKKVYTDLNNKVLFLRTVYFNTGFSGDDKDNNANNNILRQWFDYMQNSIYVNPFLHRGIAYGKQDVVLNKYLENEGVKEINRFFTKYNFEYTLDYLNERKVKDVTEIVNDDNIKLVFFNRKGVNVPIPYVLESHGNQNLLNILPCFLRVVQNSGMLLVDEFSGGLHNELERLLVNYFFLEHHHHHH”, the protein production is reported as “failed”.
For “MLAKSLGWLLAVSRRNYCMGSRTALASRPWSKHLADPQIDPTAYVHSFANVVGDVRIQPGVSVAPGSSIRADEGTPFWIGGNVLIQHGVVIHGLETGRVLGDDDQEYSVWIGPGTCVAHLALVHGPVYLGANCFIGFRSTVLNARVGDGAVVMMHSLVQDVEIPPNKLVPSGAMITQQHQADSLPDVQAGDRHFVQQIAAMHGQSASPTQGTDPTVCVLPESLPAVTPVTETPYINSIDNMSINSDITNQIRSLLAQGYGIGAEHANERRFKTKSWQSCGTADGFRPDQVIATVEGWLQEFAGEYVRLIGIDQGAKRRVVEVIIQRPGDVPGSPSRGTTTTKALSSGGSGRSAVAHQTGNLAGDSANQLRALLHQGYKIGLEYASARRFKTGSWLTGGTIGSHREGEALQELNRFLADHTNEYVRIIGIDPAGKRRVAEIVVHRPNGNGNGKPSSSSSSVGYKSAPVSSAGGSSAGGLTPEVIATVRGLLANGHSIGTEHTDKRRFKAKSWDTCPTIDGGREAEVLAKLEACLADHAGEYVRIIGIDRVGKRRVLEQIIQRPGDNVVAGRSPSSSSASTSSSASSNGFGSGNGGGYSNSAVRLDNSVVTQVRSLLAQGYKIGTEHTDKRRFKAKSWQSCAPITSTHESEVLRALEGCLADHNGEYVRLLGIDPTAKRRVLETIIQRP”, the protein production was “failed”.
In the case of “MLALPTTFAKSPIDNEASIEETTPKWSVNSPQGNFTTADIDVRSGTWMNVDLNPDGKTIIFDLLGDIYTMPASGGEATPLMTDIAWQMQPRFSPDGKYIAFTSDEDGGDNLWIMKADGSEAKAVTTETFRLLNSPAWSPDGNYIVGRKHYTGTRSLGAGEVWMYHKSGGNGVMLTKRPNEQKDLGEPAFSHDGKYVYFSQDATPGKSFHYSKDSEKGIYKIKRLELETGEIKVVVSGKGGAIRPTLSPDGKYLAFISRDDFQSNLYLYNLKNGEQSKVYDGLDRDMQETWAIHGVYPTMAWTPDSEGLVFWSGGKINKLSLDSKKAKVIDFHVKTTKKIQTAVRFPQDLDQKSFDTKMLRDVKVSPNGKLAVYESMGHLYTKSLPKGKPKRLTKQKSQFELNPSFSRDGKKIVYVSWDDKNLGQVRVVSSRGGKGKTITREPGKYVEPSFSPDGKAVVYRKVTGGFITDPTWGLNPGVYAVSVKGGKAKLVTEEGVQPHFGARNDRIYVTRDGETPHISRIDIDGQHDTKLYQGKFASEYRVSPDGNYLAFAERFKVFVTPFVERGDVIDIGPKAENLPVEQLSMRAGEGINWNGKSNELYWSLGADLYQASIKGLFDITAKTTDENDDGSEPETSASTVVNDINVINLSYKQKVDIPSGHVAFVGGKVITMEGEQVIDNGVVLVEGNKIKAVGTKGQVNIPSDATIIDITGKTVMPGLIDAHAHGPQGSNEIIPQQNWKNYAGLALGVTTIHDPSNDTTEFFAASEMQKAGKIVAARLFSTGTILYGATIPGYTSHVDSLDDAKFHVERLKAAGAFSVKSYNQPRRNQRQQFIQAARELEMMVVPEGGSLLQHNLTMVVDGHTTLEHSISTAKIYADIKQLWSQSDMAYTPTMGVAYGGISGENYWYDTTNVWEHPRLSQYVPSEFLDPRSMRRPKAPLHHYNHFNVAKVAKEMQDLGVVVNAGGHGQREGLAMHWEMWMMAQGGMSPLQAIRTATISPAKSLGLDKDLGSLTVGKLADMIVIDGDITQDIRLSDKVTHTMINGRLYNADTMNEIGNYDNKREKFYFENK”, the protein production is reported as “failed”.
For “MLAMKLGIVGLGGWVTGAHIPALTDLGIKVDYCADIDEKRVKDLSQKTGCKGYLDYKEMLRNENPDLVLVAVPHSLHAIIALDAINNDANVYVEKPMATSFQEALTLVEASRKRNKILVVGHENRFNPAMLIAKKLIRGGEVGKIYHMRGFYIRQRGIPTSPTFIKKDLAKGGAVFDIGTHIIDLLLFLSDFPTPKSVTGKTYNAFSEDKTKFSAYPSPNLPNFKVEVEDFGSAFLKLGDEISAYVEVSWASYIKENKMEVVILGDNGGIHIDNGVLNFMRNIEDELFISSPLTQQKGSVYREVWRTVMESISKGFPEYPLCSAEQGAIGVAILESIYKSALEGREVKIDIPQWFLKQFQPRALEHHHHHH”, the protein production was “failed”.
With “MLCIPATRDQTVSSHPAGTRQKKLFSQNDYLAPLPLPTGQQPVDSLNIIWRKNEVYIDIGCYSVGSAVMVIWPMMIMFISLAYGLNDIDLLWLGVIITGIPTLMLIHGLLRPTPPPVRFNRQRREVCVPRDNGEYWIVPWESVTAASTQCSSIGQAGRVTMGLLFIGFENPDAEASEDNKHFSMGFNCGGGETAMALWECMRSYMEIGPEVVPESRVGAMPYEKTQIGSIVTSLRKGDVFDVLHGLFFITILGTYLAEKLQNLKLSPPPDLEYPDIIEWSKSLPPEQWATPSPELLAALARQAATS” the protein production was “failed”.
In the case of “MLCLTKKRHGLRIEIPPMPILPARPLKYLLASIIALTAGGPDIAVAQAPDSVISQPGTAPASSFRTDRLPGGDVKPSDGVGVFDRMGAKLPDLPPEKDYKGPIDEAYGAYQRGYYLTAMDKALPRAQLGDPAAQTLIGEILSQGLGVKKDVKGAAFWYGKAAEGGDPAAMFKYALMLMEGQGVPRDKVKADDYMRKAAEAGNPSAEFNWAQIVVADNPGEKGLKLALPFYEKSAEQGIADSQYAVAQIYATLKDLPEEKKRLAREWMARAARAGFDTAELDLGIWLVNGVGGPKDYVKGFEWLKLAANGGNVVAQNKLAHLYINAIGTPPNPVEAAKWYVLSRRAGLADPSLEDFYLGIEDDQQKAAIDAANKFRRR”, the protein production is reported as “failed”.
For “MLCTYHAGQWFNNLLNFIDFIRLQFGKTANVLNLNDCLHIWLFSLEVRSLRDVVKMKLILSIMILSGCLLFILAGCARKNDYMPPAGATGEKIFKGACVQCHTPVNGKVMILRSEMANKEAIIERVTNGKGFGMPAFPNLTGDSVQNLAEYVLENSVTR”, the protein production was “failed”.
With “MLDAILSNYLYYPSILAFLFGVLMGAKYRHKIGNIFGYLILTVVIAYFLKAFPYYDLLPLSCSYLSAVIGIIIGNRLFGGKMI” the protein production was “failed”.
